From patent US20230129812A1, “COMPOSITIONS AND METHODS FOR TREATING PULMONARY HYPERTENSION” (Acceleron Pharma Inc., priority 2020, published 2023) come the findings set out here.

In experiment [1] the target is T1, GDF11 (Homo sapiens, UniProt O95390).
T1 sequence (O95390 299-407): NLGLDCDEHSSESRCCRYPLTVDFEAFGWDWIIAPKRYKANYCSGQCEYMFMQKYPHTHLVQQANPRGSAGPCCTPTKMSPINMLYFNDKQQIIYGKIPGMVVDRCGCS
The experiment is described as follows: Biacore ligand binding profile, ActRIIA-Fc:ALK4-Fc heterodimer vs homodimers, anti-Fc capture (Example 17, Table 14). As to conditions: ligand GDF11, Table 14. The procedure:
(§1) A Biacore™-based binding assay was used to compare ligand binding selectivity of the ActRIIA-Fc:ALK4-Fc heterodimeric complex described above with that of ActRIIA-Fc and ALK4-Fc homodimeric complexes. The ActRIIA-Fc:ALK4-Fc heterodimer, ActRIIA-Fc homodimer, and ALK4-Fc homodimer were independently captured onto the system using an anti-Fc antibody. Ligands were injected and allowed to flow over the captured receptor protein. Results are summarized in Table 14 below, in which ligand off-rates (kd) most indicative of effective ligand traps are denoted in bold.
In general terms: SPR reads the build-up and loss of mass on a sensor chip optically.

The next experiment deals with T2, BMP6 (Homo sapiens, UniProt P22004).
T2 sequence (P22004 375-513): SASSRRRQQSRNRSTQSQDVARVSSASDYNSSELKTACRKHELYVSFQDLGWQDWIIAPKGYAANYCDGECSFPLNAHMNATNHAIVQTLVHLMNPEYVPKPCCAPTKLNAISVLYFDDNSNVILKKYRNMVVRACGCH
The description is as above. As to conditions: ligand BMP6, Table 14. The method, then: as §1

The next experiment has as its target T3, activin AC (Homo sapiens, UniProt P08476+P55103).
T3 sequence (P08476 311-426): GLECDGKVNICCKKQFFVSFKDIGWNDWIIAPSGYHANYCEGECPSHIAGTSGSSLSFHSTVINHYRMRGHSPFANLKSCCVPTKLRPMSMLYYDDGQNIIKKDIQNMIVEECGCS
T3 sequence (P55103 237-352): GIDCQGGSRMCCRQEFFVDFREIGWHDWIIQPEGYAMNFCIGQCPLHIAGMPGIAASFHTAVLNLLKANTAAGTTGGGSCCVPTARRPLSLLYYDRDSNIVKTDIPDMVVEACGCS
Described as above. The following applies: ligand Activin AC, Table 14. The method, then:
as §1

Experiment [2] has as its target T4, GDF8 (Homo sapiens, UniProt O14793).
T4 sequence (O14793 267-375): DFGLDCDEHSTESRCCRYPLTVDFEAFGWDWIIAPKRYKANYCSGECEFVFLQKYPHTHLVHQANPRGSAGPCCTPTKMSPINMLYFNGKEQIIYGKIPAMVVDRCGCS
The experiment is described as above. As to conditions: ligand GDF8, Table 14. The procedure:
as §1

The target in a further experiment is T5, activin AB (Homo sapiens, UniProt P08476+P09529).
T5 sequence (P08476 311-426): T3 sequence (P08476 311-426)
T5 sequence (P09529 293-407): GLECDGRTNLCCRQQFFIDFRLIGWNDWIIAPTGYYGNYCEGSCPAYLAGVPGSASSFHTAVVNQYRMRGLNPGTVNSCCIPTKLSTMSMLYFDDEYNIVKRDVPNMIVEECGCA
The description is as above. The following applies: ligand Activin AB, Table 14. The procedure: as §1

A further experiment addresses T6, BMP7 (Homo sapiens, UniProt P18075).
T6 sequence (P18075 293-431): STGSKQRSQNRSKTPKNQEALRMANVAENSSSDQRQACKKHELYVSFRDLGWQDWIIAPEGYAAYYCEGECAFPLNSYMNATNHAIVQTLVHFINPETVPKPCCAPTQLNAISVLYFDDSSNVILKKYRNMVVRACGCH
The description is as above. The following applies: ligand BMP7, Table 14. The method, then: as §1

For experiment [3], the target named is T7, activin B (Homo sapiens, UniProt P09529).
T7 sequence (P09529 293-407): T5 sequence (P09529 293-407)
The experiment is described as above. The following applies: ligand Activin B, Table 14. The procedure:
as §1

In experiment [4] the target is T8, activin A (Homo sapiens, UniProt P08476).
T8 sequence (P08476 311-426): T3 sequence (P08476 311-426)
The experiment is described as above. The following applies: ligand Activin A, Table 14. The procedure: as §1

The next experiment deals with T9, BMP10 (Homo sapiens, UniProt O95393).
T9 sequence (O95393 317-424): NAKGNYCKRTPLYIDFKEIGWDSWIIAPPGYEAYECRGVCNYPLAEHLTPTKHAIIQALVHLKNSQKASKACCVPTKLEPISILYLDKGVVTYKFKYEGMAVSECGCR
Described as above. As to conditions: ligand BMP10, Table 14. The method, then: as §1

Experiment [5] has as its target T1, GDF11. The experiment is described as follows: Biacore ligand binding profile, ALK4-Fc:ActRIIB-Fc heterodimer vs homodimers, anti-Fc capture (Example 13, Table 13). The following applies: ligand GDF11, Table 13. The method, then: (§2) A Biacore™-based binding assay was used to compare ligand binding selectivity of the ALK4-Fc:ActRIIB-Fc heterodimeric complex described above with that of ActRIIB-Fc and ALK4-Fc homodimer complexes. The ALK4-Fc:ActRIeB-Fc heterodimer, […], and ALK4-Fc homodimer were independently captured onto the system using an anti-Fc antibody. Ligands were injected and allowed to flow over the captured receptor protein. Results are summarized in Table 13 below, in which ligand off-rates (kd) most indicative of effective polypeptides are denoted in bold.

Experiment [6] concerns the target T4, GDF8. Described as above. As to conditions: ligand GDF8, Table 13. The method, then:
as §2

For experiment [7], the target named is T7, activin B. The experiment is described as above. As to conditions: ligand Activin B, Table 13. The method, then:
as §2

Experiment [8] deals with T8, activin A. The description is as above. As to conditions: ligand Activin A, Table 13. The procedure: as §2

B1: ALK4-Fc homodimer: ALK4-Fc homodimer complex used as comparator in Examples 13 and 17 (protein)
chain: SGPRGVQALLCACTSCLQANYTCETDGACMVSIFNLDGMEHHVRTCIPKVELVPAGKPFYCLSSEDLRNTHCCYTDYCNRIDLRVPSGHLKEPEHPSMWGPVE
modifications: left off: a dimerising Fc or GST
By Kd is commonly meant the constant that tells how readily two partners part at equilibrium. The low end stands for tighter binding, the high end for weaker binding. B1: the ka came to 5e+06 M⁻¹ s⁻¹ with GDF11 [1]; 130000 M⁻¹ s⁻¹ with GDF8 [2]; 1.8e+06 M⁻¹ s⁻¹ with activin AB; 580000 M⁻¹ s⁻¹ in the experiment with activin A [4]; 5e+06 M⁻¹ s⁻¹ with GDF11 [5]; 130000 M⁻¹ s⁻¹ with GDF8 [6]. Besides, in the experiment with activin A [8], the ka turned out to be 580000 M⁻¹ s⁻¹. Further, the kd came to 0.0048 s⁻¹ with GDF11 [1]; 0.0019 s⁻¹ with GDF8 [2]; 0.0036 s⁻¹ with activin AB; 0.012 s⁻¹ in the experiment with activin A [4]; 0.0048 s⁻¹ with GDF11 [5]; 0.0019 s⁻¹ with GDF8 [6]. Besides, the kd in the experiment with activin A [8] was determined as 0.012 s⁻¹. For the same molecule, the KD result with BMP6, with activin AC, in the experiment with BMP7, with activin B [3], with BMP10 and with activin B [7] was “No binding” throughout. Further, the dissociation constant (Kd) with GDF8 [2] turned out to be 15 nM; with GDF11 [5] it was 0.27 nM; in the experiment with GDF8 [6], 15 nM.
